From patent US20260274980A1 (BIOARCTIC, published 2026) come the findings set out here.

The target in experiment [1] is T1, cynomolgus TfR1 (recombinant, construct not stated) (cynomolgus, UniProt H9EXL1 90-760 (rhesus entry)).
T1 construct: also called cTfR1; cynoTfR
Nature of the experiment: indirect ELISA of Fabs as for hTfR1, on cTfR1 (coating construct not stated), A450 [upper right panel cTfR1]. On the technique in general: ELISA stands for enzyme-linked immunosorbent assay.

Experiment [2] deals with T2, truncated hTfR1 of SEQ ID NO:86 (human, UniProt P02786 122-760).
T2 construct: Given only as 'truncated hTfR1'; amine-coupled to a CM5 chip for SPR; also called human TfR1
Nature of the experiment: SPR, hTfR1 amine-coupled, scFv in bispecific format injected. (In SPR one partner is held on a chip, and binding of the other changes the refractive index at the surface.)

For experiment [3], the target named is T3, truncated cTfR1 of SEQ ID NO:87 (cynomolgus, UniProt Q5RDH6 122-760 (Pongo abelii entry), limits assumed).
T3 construct: Printed only as 'truncated cTfR1'; amine-coupled to a CM5 chip for SPR; also called cynomolgus TfR1
T3 chain: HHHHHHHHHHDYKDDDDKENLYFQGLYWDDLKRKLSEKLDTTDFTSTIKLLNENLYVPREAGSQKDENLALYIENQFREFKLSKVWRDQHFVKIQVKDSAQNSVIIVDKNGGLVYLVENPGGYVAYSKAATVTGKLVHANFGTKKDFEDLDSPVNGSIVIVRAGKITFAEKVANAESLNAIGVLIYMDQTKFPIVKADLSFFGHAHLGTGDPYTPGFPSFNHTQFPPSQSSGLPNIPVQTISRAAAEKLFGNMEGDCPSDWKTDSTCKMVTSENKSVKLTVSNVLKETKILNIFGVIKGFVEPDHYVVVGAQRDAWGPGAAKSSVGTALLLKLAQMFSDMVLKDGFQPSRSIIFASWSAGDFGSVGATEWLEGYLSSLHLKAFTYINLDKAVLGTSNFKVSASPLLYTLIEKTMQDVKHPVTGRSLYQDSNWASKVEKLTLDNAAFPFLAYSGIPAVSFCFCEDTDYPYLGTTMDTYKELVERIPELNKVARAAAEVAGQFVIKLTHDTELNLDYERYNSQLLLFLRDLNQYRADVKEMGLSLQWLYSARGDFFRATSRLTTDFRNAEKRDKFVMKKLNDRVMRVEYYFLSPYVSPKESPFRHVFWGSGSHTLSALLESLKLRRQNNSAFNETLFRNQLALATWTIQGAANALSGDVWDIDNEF
Nature of the experiment: SPR (Biacore 8K), single-cycle kinetics on immobilised cTfR1 (SEQ ID NO:87), as in Example 12 [column VH first, row Cynomolgus TfR1].

Experiment [4] deals with T2, truncated hTfR1 of SEQ ID NO:86. Nature of the experiment: SPR (Biacore 8K), single-cycle kinetics on immobilised hTfR1 (SEQ ID NO:86), as in Example 12 [column VH first, row Human TfR1].
Experiment [5] has as its target T3, truncated cTfR1 of SEQ ID NO:87. Nature of the experiment: SPR (Biacore 8K), single-cycle kinetics on immobilised cTfR1 (SEQ ID NO:87), as in Example 12 [column VL first, row Cynomolgus TfR1].
Experiment [6] has as its target T4, human transferrin receptor 1 (hTfR1) on cell surfaces (human, UniProt P02786 1-760).
T4 construct: Endogenous receptor on hCMEC/D3, THP-1, K562 and Ramos cells; also called CD71; endogenous hTfR1
Nature of the experiment: flow cytometry on K562 cells (hTfR1 on the surface), Fc receptors blocked, overnight at 4 °C, detection with anti-human IgG-Alexa Fluor 488. As for the experimental part:
Fcγ receptors were blocked using Fc receptor blocker (Innovex biosciences, #NB309-4X-40) for 30 min at 4° C., after which the cells were washed in PBS. […] The plate was incubated at 4° C. overnight. […] Staining was carried out for 30 min at 4° C. […] The cells were finally resuspended in 200 μl PBS with 1% BSA and acquired using a BD FACSLyric flow cytometer system (BD Biosciences). Samples were analyzed using flowJo software (BD Biosciences).
(In general: Flow cytometry measures light scatter and fluorescence of single cells or particles in a stream.)

Positions count from the first letter of the chain named.

B1: h26D3-Fab (Fab, V domains shown)
VH: EVQLVQSGAEVKKPGSSVKVSCKASGYIFTDYNMDWVRQAPGQGLEWIGDINPDYDTTSYNEKFKGRATLTVDKSTSTAYMELSSLRSEDTAVYYCARGGYSGSSYYHPMDYWGQGTLVTVSS
VL: DIQMTQSPSSVSASVGDRVTITCKSSQSLLYSTNQKNYLAWYQQKPGKAPKLLIYWASTRESGVPSRFSGSGSGTDFTLTISSLQPEDFATYYCQQYFIYPRTFGQGTKVEIK
notes: His-tagged Fab from ExpiCHO; also called humanized 26D3 Fab
For orientation: EC50 (read off the curve) means the concentration needed to bring the measured effect to its halfway point. Regarding B1, in experiment [1], the “EC50 (read off the curve)” value was roughly 1 nM.

B2: bispecific binding molecule (format of WO2022/258841) comprising h26D3 HC6 scFv (bispecific antibody, V domains shown)
VH: B1 VH with Y55A
VL: B1 VL
The term Kd denotes the free concentration of one partner at which half of the binding sites on the other are occupied at equilibrium, for simple one-to-one binding. The low end stands for higher affinity, the high end for lower affinity. B2 displayed a Kd in experiment [2] of 100 to 200 nM.

B3: bispecific binding molecule (format of WO2022/258841) comprising h26D3 LC1 scFv (bispecific antibody, V domains shown)
VH: B1 VH
VL: B1 VL with Y31A
B3 yielded a Kd in experiment [2] of roughly 40 nM.

B4: bispecific binding molecule (format of WO2022/258841) comprising h26D3 LC5 scFv (bispecific antibody, V domains shown)
VH: B1 VH
VL: B1 VL with Y97A
B4 returned a Kd in experiment [2] of 400 to 500 nM.

B5: mAb158-Gen2D-h26D3 VH first (bispecific antibody, human IgG1, kappa)
heavy 1: not shown
heavy 2: not shown
light: DIVMTQAPLSLPVSLGDQASISCRSSQSIVHSNGNTYLEWYLQKPGQSPKLLIYKVSNRFSGVPDRFSGSGSGTDFTLKISRVEAEDLGIYYCFQGSHVPPTFGGGTKLEIKRTVAAPSVFIFPPSDEQLKSGTASVVCLLNNFYPREAKVQWKVDNALQSGNSQESVTEQDSKDSTYSLSSTLTLSKADYEKHKVYACEVTHQGLSSPVTKSFNRGEC
notes: Knob-into-hole antibody; also called Gen 2D construct, VH first
For B5, the binding result in experiment [3] and in experiment [4] was “binds” throughout.

B6: mAb158-Gen2D-h26D3 VL first (bispecific antibody, human IgG1, kappa)
heavy 1: not shown
heavy 2: not shown
light: B5 light
notes: Knob-into-hole antibody; also called Gen 2D construct, VL first
B6: the binding result in experiment [5] was “binds”. Further, the “EC50 (read off the curve)” value in experiment [6] is roughly 30 nM.
